Source: PMC12708450

Target: PD-L1 (recombinant human) (Homo sapiens) (UniProt Q9NZQ7)
Assay: ELONA
Conditions: 1:1 hyperbolic fit; internal C3 spacer (iSpC3) between DNA nt 63 and RNA nt 1 (strand position 64); nt 1-63 DNA, nt 64-82 RNA; strand 2 RNA; ELONA: PD-L1 coated in PBS at 4 C overnight; blocked with PBS, 0.1% Tween 20, 1% BSA; wash PBS, 1 mM MgCl2, 0.1% Tween 20, 0.1% BSA; oligo heated 95 C 10 min …

PD-L1 (recombinant human) (Homo sapiens), sequence (Q9NZQ7 19-238): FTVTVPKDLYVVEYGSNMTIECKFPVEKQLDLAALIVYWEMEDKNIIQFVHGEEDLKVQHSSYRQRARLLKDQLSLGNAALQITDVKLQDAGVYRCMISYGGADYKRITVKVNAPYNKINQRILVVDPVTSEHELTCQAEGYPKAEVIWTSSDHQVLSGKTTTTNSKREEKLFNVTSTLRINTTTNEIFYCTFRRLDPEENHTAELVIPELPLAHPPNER

Sequence: ACCGACCGTGCTGGACTCATCTCGCTTTTTTCACGGTCCACACTACTATGAGCGAGCCTGGCGGGAAUGACCUCUUUCACCA / UGGUGAAAGAGGUCAUUCC [PD-L1 aptamer-CD47 siRNA chimera]
- Kd: 0.174 µM
